Measurements taken from FireProtDB (doi:10.1016/0022-2836(92)90387-y).

B1: Ribonuclease, P00648 (parent)
chain: MMKMEGIALKKRLSWISVCLLVLVSAAGMLFSTAAKTETSSHKAHTEAQVINTFDGVADYLQTYHKLPDNYITKSEAQALGWVASKGNLADVAPGKSIGGDIFSNREGKLPGKSGRTWREADINYTSGFRNSDRILYSSDWLIYKTTDHYQTFTKIR

Variants of: B1
Details: Bacillus amyloliquefaciens; pH 6.3; 25 °C; Urea; Fluorescence; MES 50 mM; reversible: yes; structure 1BNI; whole UniProt chain shown

Q: For K74A, which “ddG of mutation (higher = less stable)” value is on record?
A: -0.36 kcal/mol

Q: What about the unfolding free energy of the same variant?
A: 9.19 kcal/mol

Q: With D101N as the variant, how does the “ddG of mutation (higher = less stable)” value read?
A: 2.67 kcal/mol

Q: And the unfolding free energy?
A: 8.16 kcal/mol

Q: With S104A as the variant, how does the “ddG of mutation (higher = less stable)” value read?
A: -0.15 kcal/mol

Q: What about the unfolding free energy of the same variant?
A: 8.98 kcal/mol

Q: Which “ddG of mutation (higher = less stable)” value does the source give for N105D here?
A: -0.4 kcal/mol

Q: What about the unfolding free energy of the same variant?
A: 9.23 kcal/mol

Q: With R106A as the variant, how does the “ddG of mutation (higher = less stable)” value read?
A: -0.64 kcal/mol

Q: And the unfolding free energy?
A: 9.47 kcal/mol

Q: With E120A as the variant, how does the “ddG of mutation (higher = less stable)” value read?
A: 2.3 kcal/mol

Q: And the unfolding free energy?
A: 6.53 kcal/mol

Q: Which results are given for H149A?
A: ddG of mutation (higher = less stable): 0.24 kcal/mol; unfolding free energy: 8.59 kcal/mol

Q: Which “ddG of mutation (higher = less stable)” value does the source give for Y150F here?
A: 0 kcal/mol

Q: What about the unfolding free energy of the same variant?
A: 8.83 kcal/mol

Q: For Q151A, which “ddG of mutation (higher = less stable)” value is on record?
A: 0.16 kcal/mol

Q: And the unfolding free energy?
A: 8.67 kcal/mol
